According to patent US20200262877A1, “ION CHANNEL-BINDING PEPTIDES AND METHODS OF USE THEREOF” (priority 2017, published 2020):

What was measured:
[1] = target: T1, Kv1.1 (Homo sapiens, UniProt Q09470); experiment: cell-based; format: cell-based; conditions: 100% = no change, <100% = inhibition
T1 construct: host or cells: HEK293 or CHO
Summary of the method: (§1)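 Transfected HEK293 or CHO cells were exposed for at least 5 min to peptides at 200 nM and 20 μM final, tested in duplicate, in HEPES-buffered physiological saline. Activation was taken as peptide-plus-agonist current over control current ×100, and inhibition as 1 minus that ratio ×100. Each channel's control was its own reference compound.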

[2] = target: T2, Kv1.3 (Homo sapiens, UniProt P22001); experiment: cell-based; format: cell-based; conditions: 100% = no change, <100% = inhibition
T2 construct: host or cells: HEK293 or CHO
T2 sequence (P22001 whole entry): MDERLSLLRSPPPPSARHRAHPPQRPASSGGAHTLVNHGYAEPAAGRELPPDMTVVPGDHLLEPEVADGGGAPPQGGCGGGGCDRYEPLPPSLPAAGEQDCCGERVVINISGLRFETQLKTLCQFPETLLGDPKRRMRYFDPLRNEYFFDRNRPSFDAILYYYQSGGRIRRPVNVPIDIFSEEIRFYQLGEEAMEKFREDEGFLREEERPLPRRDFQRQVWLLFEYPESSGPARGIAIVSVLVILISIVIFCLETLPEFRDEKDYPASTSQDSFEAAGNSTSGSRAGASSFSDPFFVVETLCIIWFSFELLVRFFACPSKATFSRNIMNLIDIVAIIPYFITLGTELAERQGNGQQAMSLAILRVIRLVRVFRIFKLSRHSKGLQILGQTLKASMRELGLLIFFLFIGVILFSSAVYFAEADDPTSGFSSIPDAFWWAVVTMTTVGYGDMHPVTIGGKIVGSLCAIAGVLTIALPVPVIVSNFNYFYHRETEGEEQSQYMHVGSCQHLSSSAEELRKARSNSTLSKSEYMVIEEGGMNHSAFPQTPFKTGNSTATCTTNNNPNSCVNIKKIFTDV
Summary of the method: as §1

[3] = target: T3, Kv1.2 (Homo sapiens, UniProt P16389); experiment: cell-based; format: cell-based; conditions: 100% = no change, <100% = inhibition
T3 construct: host or cells: HEK293 or CHO
Summary of the method: as §1

[4] = system: GABA; experiment: Ion channel panel (IonWorks Barracuda): GABA; format: cell-based; conditions: 100% = no change, <100% = inhibition
Summary of the method: as §1

[5] = target: T4, Kir2.1 (Homo sapiens, UniProt P63252); experiment: Ion channel panel (IonWorks Barracuda): Kir2.1; format: cell-based; conditions: 100% = no change, <100% = inhibition
T4 construct: host or cells: HEK293 or CHO
Summary of the method: as §1

[6] = target: T5, TRPV1 (Homo sapiens, UniProt Q8NER1); experiment: Ion channel panel (IonWorks Barracuda): TRPV1; format: cell-based; conditions: 100% = no change, <100% = inhibition
T5 construct: host or cells: HEK293 or CHO
Summary of the method: as §1

[7] = target: T6, α4β2 (Homo sapiens, UniProt P17787+P43681); experiment: Ion channel panel (IonWorks Barracuda): α4β2; format: cell-based; conditions: 100% = no change, <100% = inhibition
T6 construct: host or cells: HEK293 or CHO
Summary of the method: as §1

[8] = target: T7, 5HT3a (Homo sapiens, UniProt P46098); experiment: Ion channel panel (IonWorks Barracuda): 5HT3a; format: cell-based
T7 construct: host or cells: HEK293 or CHO
T7 sequence (P46098 whole entry, looked up): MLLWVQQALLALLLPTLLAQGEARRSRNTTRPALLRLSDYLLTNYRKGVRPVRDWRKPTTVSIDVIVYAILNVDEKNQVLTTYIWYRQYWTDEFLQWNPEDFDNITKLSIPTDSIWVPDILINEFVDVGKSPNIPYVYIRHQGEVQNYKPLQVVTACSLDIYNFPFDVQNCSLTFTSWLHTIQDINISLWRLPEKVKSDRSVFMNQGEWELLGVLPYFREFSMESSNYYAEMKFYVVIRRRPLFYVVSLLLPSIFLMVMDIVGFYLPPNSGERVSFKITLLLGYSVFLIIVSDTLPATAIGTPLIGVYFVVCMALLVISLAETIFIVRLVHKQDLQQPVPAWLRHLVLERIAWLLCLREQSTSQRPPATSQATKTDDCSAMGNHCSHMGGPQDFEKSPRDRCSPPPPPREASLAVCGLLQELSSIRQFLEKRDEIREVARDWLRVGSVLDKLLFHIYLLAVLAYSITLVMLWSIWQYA
Summary of the method: as §1

[9] = target: T8, NR2B (Homo sapiens, UniProt Q13224); experiment: Ion channel panel (IonWorks Barracuda): NR2B; format: cell-based; conditions: 100% = no change, <100% = inhibition
T8 construct: host or cells: HEK293 or CHO
Summary of the method: as §1

[10] = target: T9, TRPA1 (Homo sapiens, UniProt O75762); experiment: Ion channel panel (IonWorks Barracuda): TRPA1; format: cell-based; conditions: 100% = no change, <100% = inhibition
T9 construct: host or cells: HEK293 or CHO
Summary of the method: as §1

[11] = target: hERG (Homo sapiens, UniProt Q12809); experiment: in vitro; conditions: 100% = no change, <100% = inhibition
Summary of the method: as §1

[12] = target: Nav1.5 (Homo sapiens, UniProt Q14524); experiment: in vitro; conditions: 100% = no change; for Activity of Nav1.5 with peptide, expressed as a percentage of the reference compound: peptide at 0.2 μM; for Activity of Nav1.5 with peptide (percentage of the reference compound): peptide at 20 μM
Chain of Nav1.5 (Q14524 whole entry): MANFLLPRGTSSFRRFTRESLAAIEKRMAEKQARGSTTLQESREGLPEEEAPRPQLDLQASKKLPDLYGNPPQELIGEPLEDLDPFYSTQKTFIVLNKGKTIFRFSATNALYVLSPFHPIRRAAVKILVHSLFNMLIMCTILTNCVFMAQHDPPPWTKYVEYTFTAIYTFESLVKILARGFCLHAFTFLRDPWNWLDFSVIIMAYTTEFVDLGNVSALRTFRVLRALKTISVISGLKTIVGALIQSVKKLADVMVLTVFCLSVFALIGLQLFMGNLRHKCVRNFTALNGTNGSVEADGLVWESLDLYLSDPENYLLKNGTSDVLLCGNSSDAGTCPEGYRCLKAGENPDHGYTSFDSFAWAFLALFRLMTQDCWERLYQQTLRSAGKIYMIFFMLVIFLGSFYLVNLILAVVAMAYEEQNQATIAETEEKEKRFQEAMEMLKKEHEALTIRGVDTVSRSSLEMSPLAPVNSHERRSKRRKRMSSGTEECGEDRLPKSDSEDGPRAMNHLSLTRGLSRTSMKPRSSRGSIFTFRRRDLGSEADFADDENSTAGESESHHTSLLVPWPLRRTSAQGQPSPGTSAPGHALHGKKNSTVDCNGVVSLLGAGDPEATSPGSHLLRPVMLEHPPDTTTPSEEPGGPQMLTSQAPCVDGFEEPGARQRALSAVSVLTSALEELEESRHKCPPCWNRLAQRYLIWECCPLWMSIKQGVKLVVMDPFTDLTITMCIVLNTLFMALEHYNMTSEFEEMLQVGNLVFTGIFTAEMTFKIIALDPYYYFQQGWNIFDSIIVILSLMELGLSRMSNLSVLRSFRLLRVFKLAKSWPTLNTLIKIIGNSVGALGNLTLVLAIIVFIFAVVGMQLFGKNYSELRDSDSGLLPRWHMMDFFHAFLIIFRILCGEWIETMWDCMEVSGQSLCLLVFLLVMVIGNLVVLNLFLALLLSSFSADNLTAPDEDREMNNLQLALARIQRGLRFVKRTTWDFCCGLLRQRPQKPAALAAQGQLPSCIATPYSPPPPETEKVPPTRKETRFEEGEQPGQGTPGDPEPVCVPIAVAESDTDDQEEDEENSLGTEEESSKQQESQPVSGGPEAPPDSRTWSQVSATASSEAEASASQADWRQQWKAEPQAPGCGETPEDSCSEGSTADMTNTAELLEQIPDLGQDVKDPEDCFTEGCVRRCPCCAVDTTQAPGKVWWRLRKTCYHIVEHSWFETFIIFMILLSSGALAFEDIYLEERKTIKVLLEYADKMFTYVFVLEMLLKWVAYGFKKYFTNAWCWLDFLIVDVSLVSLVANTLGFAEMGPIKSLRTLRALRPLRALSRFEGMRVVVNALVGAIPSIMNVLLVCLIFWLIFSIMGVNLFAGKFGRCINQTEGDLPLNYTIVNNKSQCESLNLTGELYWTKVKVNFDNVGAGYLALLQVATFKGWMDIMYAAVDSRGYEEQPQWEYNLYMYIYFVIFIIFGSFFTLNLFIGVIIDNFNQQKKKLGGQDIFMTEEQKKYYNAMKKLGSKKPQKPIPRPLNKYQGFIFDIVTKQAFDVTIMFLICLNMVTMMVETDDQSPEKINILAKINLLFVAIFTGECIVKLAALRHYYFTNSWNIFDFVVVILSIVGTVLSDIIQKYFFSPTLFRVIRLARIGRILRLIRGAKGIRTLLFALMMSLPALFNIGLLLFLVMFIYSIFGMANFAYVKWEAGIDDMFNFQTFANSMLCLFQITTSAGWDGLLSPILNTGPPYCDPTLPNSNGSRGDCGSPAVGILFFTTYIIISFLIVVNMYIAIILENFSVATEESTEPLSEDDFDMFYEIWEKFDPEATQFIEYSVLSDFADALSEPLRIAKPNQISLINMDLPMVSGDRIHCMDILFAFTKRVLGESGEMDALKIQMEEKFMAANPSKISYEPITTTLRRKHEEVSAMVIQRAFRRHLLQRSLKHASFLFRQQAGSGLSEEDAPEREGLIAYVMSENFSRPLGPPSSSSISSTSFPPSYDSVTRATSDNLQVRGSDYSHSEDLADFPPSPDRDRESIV
Summary of the method: as §1

[13] = target: T10, Cav2.1 (Homo sapiens, UniProt O00555); experiment: cell-based; conditions: 100% = no change, <100% = inhibition
T10 construct: host or cells: HEK293 or CHO
Summary of the method: as §1

[14] = target: T11, Kv2.1 (Homo sapiens, UniProt Q14721); experiment: cell-based; conditions: 100% = no change, <100% = inhibition
T11 construct: host or cells: HEK293 or CHO
Summary of the method: as §1

[15] = target: T12, Cav2.2 (Homo sapiens, UniProt Q00975); experiment: cell-based; conditions: 100% = no change, <100% = inhibition
T12 construct: host or cells: HEK293 or CHO
Summary of the method: as §1

[16] = target: T13, NR2A (Homo sapiens, UniProt Q12879); experiment: Ion channel panel (IonWorks Barracuda): NR2A; format: cell-based; conditions: 100% = no change, <100% = inhibition
T13 construct: host or cells: HEK293 or CHO
Summary of the method: as §1

[17] = target: T14, α3β4 (Homo sapiens, UniProt P30926+P32297); experiment: Ion channel panel (IonWorks Barracuda): α3β4; format: cell-based; conditions: 100% = no change, <100% = inhibition
T14 construct: host or cells: HEK293 or CHO
Summary of the method: as §1

[18] = target: T15, Nav1.7 (Homo sapiens, UniProt Q15858); experiment: cell-based; format: cell-based; conditions: 100% = no change; for Activity of Nav1.7 with peptide, expressed as a percentage of the reference compound: peptide at 0.2 μM; for Activity of Nav1.7 with peptide (percentage of the reference compound): peptide at 20 μM
T15 construct: host or cells: HEK293 or CHO
T15 sequence (Q15858 whole entry): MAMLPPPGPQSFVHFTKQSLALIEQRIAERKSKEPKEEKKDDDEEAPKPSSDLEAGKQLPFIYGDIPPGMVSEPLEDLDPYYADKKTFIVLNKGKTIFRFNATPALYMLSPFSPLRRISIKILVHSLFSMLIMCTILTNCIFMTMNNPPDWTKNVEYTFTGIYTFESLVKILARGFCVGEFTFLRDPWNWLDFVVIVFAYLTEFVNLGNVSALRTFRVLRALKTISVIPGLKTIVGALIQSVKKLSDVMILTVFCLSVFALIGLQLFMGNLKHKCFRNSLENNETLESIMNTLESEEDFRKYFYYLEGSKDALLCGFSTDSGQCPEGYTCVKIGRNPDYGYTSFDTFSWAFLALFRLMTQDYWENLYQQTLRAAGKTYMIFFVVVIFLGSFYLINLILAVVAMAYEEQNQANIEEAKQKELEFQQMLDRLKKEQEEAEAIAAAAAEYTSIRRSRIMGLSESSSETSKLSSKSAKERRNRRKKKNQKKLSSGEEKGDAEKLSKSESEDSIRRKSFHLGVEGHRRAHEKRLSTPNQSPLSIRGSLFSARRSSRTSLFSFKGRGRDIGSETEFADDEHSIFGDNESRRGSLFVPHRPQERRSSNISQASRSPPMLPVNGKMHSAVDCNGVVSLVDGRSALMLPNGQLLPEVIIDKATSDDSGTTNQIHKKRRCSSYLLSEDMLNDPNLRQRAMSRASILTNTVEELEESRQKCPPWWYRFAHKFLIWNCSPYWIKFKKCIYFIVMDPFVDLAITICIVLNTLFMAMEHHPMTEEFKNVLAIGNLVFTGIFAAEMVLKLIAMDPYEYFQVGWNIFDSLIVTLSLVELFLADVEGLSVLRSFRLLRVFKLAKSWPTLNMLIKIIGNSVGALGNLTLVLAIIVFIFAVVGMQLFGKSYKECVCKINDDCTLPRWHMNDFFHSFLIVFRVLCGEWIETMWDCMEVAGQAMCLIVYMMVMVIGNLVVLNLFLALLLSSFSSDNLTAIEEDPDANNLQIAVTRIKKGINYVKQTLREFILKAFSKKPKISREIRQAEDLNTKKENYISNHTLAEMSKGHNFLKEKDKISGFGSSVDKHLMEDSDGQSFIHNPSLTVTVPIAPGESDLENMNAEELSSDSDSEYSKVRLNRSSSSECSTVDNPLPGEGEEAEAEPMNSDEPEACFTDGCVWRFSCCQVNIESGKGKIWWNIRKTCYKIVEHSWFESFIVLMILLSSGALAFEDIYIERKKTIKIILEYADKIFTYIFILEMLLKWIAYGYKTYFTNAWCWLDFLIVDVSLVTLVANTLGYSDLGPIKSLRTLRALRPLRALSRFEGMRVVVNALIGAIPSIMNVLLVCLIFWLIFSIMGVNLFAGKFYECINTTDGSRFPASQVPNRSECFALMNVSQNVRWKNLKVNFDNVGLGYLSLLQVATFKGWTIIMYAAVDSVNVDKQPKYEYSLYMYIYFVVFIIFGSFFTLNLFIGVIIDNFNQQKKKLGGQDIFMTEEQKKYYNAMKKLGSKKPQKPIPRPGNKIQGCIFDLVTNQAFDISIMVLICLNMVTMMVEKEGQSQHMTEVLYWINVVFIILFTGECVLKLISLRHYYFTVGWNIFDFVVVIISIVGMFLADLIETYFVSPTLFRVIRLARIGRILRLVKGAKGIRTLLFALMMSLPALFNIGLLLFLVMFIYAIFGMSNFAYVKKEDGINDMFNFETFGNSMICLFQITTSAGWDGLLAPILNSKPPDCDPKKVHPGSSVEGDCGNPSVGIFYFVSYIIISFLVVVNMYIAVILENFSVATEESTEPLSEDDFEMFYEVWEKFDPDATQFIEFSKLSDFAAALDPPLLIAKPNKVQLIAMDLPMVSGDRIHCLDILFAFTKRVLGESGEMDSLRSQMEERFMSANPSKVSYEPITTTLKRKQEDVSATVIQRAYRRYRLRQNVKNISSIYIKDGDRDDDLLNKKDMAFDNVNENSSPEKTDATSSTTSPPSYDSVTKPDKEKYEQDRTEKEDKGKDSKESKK

[19] = first of two Nav1.5 columns (probably TP1)
[20] = second of two Nav1.5 columns (probably TP2)
[21] = first of two Nav1.7 columns (probably TP1)
[22] = second of two Nav1.7 columns (probably TP2)

T1 sequence (Q09470 whole entry): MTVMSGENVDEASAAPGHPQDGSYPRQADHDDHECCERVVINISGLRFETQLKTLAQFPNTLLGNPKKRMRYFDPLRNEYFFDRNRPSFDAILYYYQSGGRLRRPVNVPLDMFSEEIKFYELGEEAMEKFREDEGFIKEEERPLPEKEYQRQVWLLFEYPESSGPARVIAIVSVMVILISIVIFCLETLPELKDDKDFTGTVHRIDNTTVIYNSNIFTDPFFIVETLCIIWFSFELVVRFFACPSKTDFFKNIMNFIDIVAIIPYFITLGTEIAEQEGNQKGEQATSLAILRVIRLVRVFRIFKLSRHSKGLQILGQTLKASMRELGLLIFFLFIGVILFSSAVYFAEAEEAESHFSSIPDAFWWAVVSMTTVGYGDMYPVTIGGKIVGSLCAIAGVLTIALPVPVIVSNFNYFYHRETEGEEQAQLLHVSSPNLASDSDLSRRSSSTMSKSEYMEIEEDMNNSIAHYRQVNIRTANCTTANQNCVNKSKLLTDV

26 (GSVVIGQRCYRSPDCYSACKKLVGKATGKCTNGRCDC) [compound 26]
Activity of Kv1.1 with peptide, expressed as a percentage of the reference compound ([1]; peptide at 0.2 μM): 66% | Activity of Kv1.1 with peptide (percentage of the reference compound) ([1]; peptide at 20 μM): 85% | Activity of Kv1.3 with peptide, expressed as a percentage of the reference compound ([2]; peptide at 0.2 μM): 94% | Activity of Kv1.3 with peptide (percentage of the reference compound) ([2]; peptide at 20 μM): 77% | Activity of Kv1.2 with peptide, expressed as a percentage of the reference compound ([3]; peptide at 0.2 μM): 79% | Activity of Kv1.2 with peptide (percentage of the reference compound) ([3]; peptide at 20 μM): 47% | Activity of GABA with peptide, expressed as a percentage of the reference compound ([4]; peptide at 0.2 μM): 117% | Activity of GABA with peptide (percentage of the reference compound) ([4]; peptide at 20 μM): 106% | Activity of Kir2.1 with peptide, expressed as a percentage of the reference compound ([5]; peptide at 0.2 μM): 102% | Activity of Kir2.1 with peptide (percentage of the reference compound) ([5]; peptide at 20 μM): 93% | Activity of TRPV1 with peptide, expressed as a percentage of the reference compound ([6]; peptide at 0.2 μM): 116% | Activity of TRPV1 with peptide (percentage of the reference compound) ([6]; peptide at 20 μM): 92% | Activity of a4b2 with peptide, expressed as a percentage of the reference compound ([7]; peptide at 0.2 μM): 85% | Activity of a4b2 with peptide (percentage of the reference compound) ([7]; peptide at 20 μM): 89% | Activity of 5HT3a with peptide (percentage of the reference compound) [8]: 96% | Activity of 5HT3a with peptide, expressed as a percentage of the reference compound [8]: 82% | Activity of NR2B with peptide, expressed as a percentage of the reference compound ([9]; peptide at 0.2 μM): 86% | Activity of NR2B with peptide (percentage of the reference compound) ([9]; peptide at 20 μM): 79% | Activity of TRPA1 with peptide, expressed as a percentage of the reference compound ([10]; peptide at 0.2 μM): 109% | Activity of TRPA1 with peptide (percentage of the reference compound) ([10]; peptide at 20 μM): 115% | Activity of hERG with peptide, expressed as a percentage of the reference compound ([11]; peptide at 0.2 μM): 80% | Activity of hERG with peptide (percentage of the reference compound) ([11]; peptide at 20 μM): 74% | Activity of Nav1.5 with peptide, expressed as a percentage of the reference compound [12, 19]: 92% | Activity of Nav1.5 with peptide, expressed as a percentage of the reference compound [12, 20]: 91% | Activity of Nav1.5 with peptide (percentage of the reference compound) [12, 19]: 90% | Activity of Nav1.5 with peptide (percentage of the reference compound) [12, 20]: 94% | Activity of Cav2.1 with peptide, expressed as a percentage of the reference compound ([13]; peptide at 0.2 μM): 115% | Activity of Cav2.1 with peptide (percentage of the reference compound) ([13]; peptide at 20 μM): 85% | Activity of Kv2.1 with peptide, expressed as a percentage of the reference compound ([14]; peptide at 0.2 μM): 98% | Activity of Kv2.1 with peptide (percentage of the reference compound) ([14]; peptide at 20 μM): 102% | Activity of Cav2.2 with peptide, expressed as a percentage of the reference compound ([15]; peptide at 0.2 μM): 103% | Activity of Cav2.2 with peptide (percentage of the reference compound) ([15]; peptide at 20 μM): 121% | Activity of NR2A with peptide, expressed as a percentage of the reference compound ([16]; peptide at 0.2 μM): 113% | Activity of NR2A with peptide (percentage of the reference compound) ([16]; peptide at 20 μM): 114% | Activity of a3b4 with peptide, expressed as a percentage of the reference compound ([17]; peptide at 0.2 μM): 88% | Activity of a3b4 with peptide (percentage of the reference compound) ([17]; peptide at 20 μM): 91% | Activity of Nav1.7 with peptide, expressed as a percentage of the reference compound [18, 21]: 81% | Activity of Nav1.7 with peptide, expressed as a percentage of the reference compound [18, 22]: 74% | Activity of Nav1.7 with peptide (percentage of the reference compound) [18, 21]: 73% | Activity of Nav1.7 with peptide (percentage of the reference compound) [18, 22]: 60%
